Source: the supplement of paper PMC10065799, “High-throughput profiling of sequence recognition by tyrosine kinases and SH2 domains using bacterial peptide display” (eLife, 2023)

How the values were obtained:
SHP2-C SH2 = experiment: SH2 binding enrichment of the phosphorylated peptide, bacterial display (enrichment ratio); higher = better substrate or ligand; peptides without Tyr show the background
c-Src SH2 = experiment: as above
Grb2 SH2 = Grb2 SH2 (UniProt P62993); experiment: as above
EPHB2 = EPHB2 (UniProt P29323); experiment: phosphorylation enrichment, bacterial display (enrichment ratio); higher = better substrate or ligand; peptides without Tyr show the background
Jak2 = Jak2 (UniProt O60674); experiment: as above
c-Src = experiment: as above
EPHB1 = EPHB1 (UniProt P54762); experiment: as above
Fyn = Fyn (UniProt P06241); experiment: as above
Fes = Fes (UniProt P07332); experiment: as above
c-Abl (mouse) = experiment: as above
MERTK = MERTK (UniProt Q12866); experiment: as above
Hck = Hck (UniProt P08631); experiment: as above
AncSZ = experiment: as above
Fer (mouse) = experiment: as above
FGFR1 = FGFR1 (UniProt P11362); experiment: as above
FGFR3 = FGFR3 (UniProt P22607); experiment: as above
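Wherever SH2 binding enrichment of the phosphorylated peptide, bacterial display is given: peptide library displayed on the E. coli surface as eCPX fusions, selected cells deep-sequenced, score is each peptide's frequency after selection divided by its frequency in the input.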
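Wherever phosphorylation enrichment, bacterial display is given: 11-residue human phosphosite peptides and single-mutation variants displayed on the E. coli surface, counted by deep sequencing, each peptide's frequency after selection divided by its frequency in the unselected input library; frequency after pTyr selection over input frequency; kinase dosed for 20-30% of maximal phosphorylation in three min.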

Sequence of Fyn (P06241 whole entry, looked up): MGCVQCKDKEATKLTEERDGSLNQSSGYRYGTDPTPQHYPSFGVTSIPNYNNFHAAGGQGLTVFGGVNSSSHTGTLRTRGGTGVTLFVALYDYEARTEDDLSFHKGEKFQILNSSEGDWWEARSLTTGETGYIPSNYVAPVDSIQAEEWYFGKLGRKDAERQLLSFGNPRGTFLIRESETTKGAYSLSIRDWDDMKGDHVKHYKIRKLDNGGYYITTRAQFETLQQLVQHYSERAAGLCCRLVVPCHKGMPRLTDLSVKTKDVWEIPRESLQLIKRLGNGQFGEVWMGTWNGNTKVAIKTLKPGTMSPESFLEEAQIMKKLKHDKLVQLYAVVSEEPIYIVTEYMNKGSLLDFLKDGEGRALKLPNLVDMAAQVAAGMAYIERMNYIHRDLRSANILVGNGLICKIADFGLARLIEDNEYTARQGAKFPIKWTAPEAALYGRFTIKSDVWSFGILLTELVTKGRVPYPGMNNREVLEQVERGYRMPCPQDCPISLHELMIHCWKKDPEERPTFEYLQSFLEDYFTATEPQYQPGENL
Sequence of FGFR1 (P11362 whole entry, looked up): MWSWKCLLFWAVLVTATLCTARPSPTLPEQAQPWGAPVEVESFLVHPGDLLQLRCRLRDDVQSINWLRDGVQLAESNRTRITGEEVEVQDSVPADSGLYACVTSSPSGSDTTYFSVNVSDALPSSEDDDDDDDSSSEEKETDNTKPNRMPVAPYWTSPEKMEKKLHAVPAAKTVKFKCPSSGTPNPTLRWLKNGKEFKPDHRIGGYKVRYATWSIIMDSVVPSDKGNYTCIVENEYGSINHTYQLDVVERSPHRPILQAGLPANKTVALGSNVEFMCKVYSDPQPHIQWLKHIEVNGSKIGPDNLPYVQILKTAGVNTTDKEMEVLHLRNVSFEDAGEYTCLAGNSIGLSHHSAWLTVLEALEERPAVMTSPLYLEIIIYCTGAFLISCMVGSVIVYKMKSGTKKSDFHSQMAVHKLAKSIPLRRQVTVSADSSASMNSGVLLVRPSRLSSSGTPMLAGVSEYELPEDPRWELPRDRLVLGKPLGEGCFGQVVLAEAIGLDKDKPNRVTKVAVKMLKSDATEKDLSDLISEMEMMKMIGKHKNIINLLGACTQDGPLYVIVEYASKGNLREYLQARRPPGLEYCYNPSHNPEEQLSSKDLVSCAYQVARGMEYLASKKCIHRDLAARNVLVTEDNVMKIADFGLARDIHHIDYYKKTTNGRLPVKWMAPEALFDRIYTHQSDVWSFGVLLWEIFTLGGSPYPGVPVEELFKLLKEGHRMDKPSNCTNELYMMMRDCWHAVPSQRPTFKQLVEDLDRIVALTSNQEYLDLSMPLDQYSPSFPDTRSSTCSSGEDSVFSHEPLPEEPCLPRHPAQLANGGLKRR
Sequence of Fes (P07332 whole entry, looked up): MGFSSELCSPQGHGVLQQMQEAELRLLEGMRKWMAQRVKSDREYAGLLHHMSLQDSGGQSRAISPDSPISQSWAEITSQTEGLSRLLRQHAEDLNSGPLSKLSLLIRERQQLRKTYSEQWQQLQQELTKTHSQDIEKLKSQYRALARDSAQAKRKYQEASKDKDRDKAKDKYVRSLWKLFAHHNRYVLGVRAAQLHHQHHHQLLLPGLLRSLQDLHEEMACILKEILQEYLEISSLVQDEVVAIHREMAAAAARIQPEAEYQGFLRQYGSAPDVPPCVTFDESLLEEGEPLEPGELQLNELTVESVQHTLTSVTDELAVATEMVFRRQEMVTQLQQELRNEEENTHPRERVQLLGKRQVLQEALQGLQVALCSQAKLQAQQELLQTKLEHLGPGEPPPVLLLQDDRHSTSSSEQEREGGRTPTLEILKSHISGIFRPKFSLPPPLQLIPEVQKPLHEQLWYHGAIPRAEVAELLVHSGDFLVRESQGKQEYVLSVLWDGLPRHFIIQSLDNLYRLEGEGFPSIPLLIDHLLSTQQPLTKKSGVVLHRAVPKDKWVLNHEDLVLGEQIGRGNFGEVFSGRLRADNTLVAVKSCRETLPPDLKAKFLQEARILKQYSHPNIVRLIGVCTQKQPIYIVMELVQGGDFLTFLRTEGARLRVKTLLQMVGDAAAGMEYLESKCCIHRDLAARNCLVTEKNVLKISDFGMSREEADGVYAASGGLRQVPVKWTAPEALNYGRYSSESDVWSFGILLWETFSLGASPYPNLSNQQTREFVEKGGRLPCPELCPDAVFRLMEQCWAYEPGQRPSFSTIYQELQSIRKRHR
Sequence of EPHB1 (P54762 whole entry, looked up): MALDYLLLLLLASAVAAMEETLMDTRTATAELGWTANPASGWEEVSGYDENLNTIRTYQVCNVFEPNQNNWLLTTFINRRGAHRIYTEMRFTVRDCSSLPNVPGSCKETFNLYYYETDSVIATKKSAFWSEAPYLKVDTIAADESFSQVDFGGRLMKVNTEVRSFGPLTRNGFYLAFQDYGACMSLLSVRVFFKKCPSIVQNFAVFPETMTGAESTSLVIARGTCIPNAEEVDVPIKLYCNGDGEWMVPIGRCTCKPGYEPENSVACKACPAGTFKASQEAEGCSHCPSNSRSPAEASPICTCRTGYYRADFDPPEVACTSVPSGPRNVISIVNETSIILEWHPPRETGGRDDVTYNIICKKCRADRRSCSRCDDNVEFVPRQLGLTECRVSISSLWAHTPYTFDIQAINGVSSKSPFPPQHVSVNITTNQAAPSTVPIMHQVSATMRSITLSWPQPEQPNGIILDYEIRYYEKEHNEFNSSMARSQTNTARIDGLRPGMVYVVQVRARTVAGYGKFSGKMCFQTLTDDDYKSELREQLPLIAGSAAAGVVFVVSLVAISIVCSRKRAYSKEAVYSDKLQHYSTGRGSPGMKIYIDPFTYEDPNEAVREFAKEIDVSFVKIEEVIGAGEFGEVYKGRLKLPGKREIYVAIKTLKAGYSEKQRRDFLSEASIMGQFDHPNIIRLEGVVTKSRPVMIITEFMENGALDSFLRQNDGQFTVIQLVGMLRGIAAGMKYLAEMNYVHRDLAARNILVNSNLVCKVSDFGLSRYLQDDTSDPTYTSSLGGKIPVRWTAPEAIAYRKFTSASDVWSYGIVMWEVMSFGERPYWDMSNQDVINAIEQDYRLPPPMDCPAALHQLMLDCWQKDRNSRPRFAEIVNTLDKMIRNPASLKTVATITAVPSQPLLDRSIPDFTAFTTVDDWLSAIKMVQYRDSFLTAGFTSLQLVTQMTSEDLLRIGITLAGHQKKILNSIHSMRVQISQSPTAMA
Sequence of MERTK (Q12866 whole entry, looked up): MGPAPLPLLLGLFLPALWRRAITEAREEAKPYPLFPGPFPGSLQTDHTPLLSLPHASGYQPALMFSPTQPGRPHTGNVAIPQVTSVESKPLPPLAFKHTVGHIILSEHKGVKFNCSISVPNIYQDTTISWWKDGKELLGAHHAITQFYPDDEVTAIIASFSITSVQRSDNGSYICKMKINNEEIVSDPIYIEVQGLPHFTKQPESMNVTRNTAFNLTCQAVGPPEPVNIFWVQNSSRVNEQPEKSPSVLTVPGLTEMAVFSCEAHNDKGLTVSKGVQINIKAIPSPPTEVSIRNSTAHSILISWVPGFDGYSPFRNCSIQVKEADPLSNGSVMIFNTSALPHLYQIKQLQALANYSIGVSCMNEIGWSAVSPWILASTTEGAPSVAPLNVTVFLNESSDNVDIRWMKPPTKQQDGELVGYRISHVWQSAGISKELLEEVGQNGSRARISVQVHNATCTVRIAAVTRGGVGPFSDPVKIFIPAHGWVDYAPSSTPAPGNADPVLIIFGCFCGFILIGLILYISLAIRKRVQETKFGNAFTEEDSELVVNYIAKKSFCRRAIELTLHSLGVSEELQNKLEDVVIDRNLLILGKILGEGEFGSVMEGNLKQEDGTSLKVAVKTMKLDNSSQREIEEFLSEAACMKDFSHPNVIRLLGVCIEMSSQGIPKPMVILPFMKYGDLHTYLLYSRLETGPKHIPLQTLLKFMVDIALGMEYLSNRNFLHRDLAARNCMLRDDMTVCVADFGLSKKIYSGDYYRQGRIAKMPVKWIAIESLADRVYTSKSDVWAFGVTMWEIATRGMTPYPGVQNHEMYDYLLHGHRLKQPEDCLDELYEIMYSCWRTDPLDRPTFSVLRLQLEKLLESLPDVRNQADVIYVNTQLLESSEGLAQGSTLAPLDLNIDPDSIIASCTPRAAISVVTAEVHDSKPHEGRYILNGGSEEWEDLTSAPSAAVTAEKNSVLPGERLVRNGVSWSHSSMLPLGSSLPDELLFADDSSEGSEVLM
Sequence of FGFR3 (P22607 whole entry, looked up, the tested form may be a part): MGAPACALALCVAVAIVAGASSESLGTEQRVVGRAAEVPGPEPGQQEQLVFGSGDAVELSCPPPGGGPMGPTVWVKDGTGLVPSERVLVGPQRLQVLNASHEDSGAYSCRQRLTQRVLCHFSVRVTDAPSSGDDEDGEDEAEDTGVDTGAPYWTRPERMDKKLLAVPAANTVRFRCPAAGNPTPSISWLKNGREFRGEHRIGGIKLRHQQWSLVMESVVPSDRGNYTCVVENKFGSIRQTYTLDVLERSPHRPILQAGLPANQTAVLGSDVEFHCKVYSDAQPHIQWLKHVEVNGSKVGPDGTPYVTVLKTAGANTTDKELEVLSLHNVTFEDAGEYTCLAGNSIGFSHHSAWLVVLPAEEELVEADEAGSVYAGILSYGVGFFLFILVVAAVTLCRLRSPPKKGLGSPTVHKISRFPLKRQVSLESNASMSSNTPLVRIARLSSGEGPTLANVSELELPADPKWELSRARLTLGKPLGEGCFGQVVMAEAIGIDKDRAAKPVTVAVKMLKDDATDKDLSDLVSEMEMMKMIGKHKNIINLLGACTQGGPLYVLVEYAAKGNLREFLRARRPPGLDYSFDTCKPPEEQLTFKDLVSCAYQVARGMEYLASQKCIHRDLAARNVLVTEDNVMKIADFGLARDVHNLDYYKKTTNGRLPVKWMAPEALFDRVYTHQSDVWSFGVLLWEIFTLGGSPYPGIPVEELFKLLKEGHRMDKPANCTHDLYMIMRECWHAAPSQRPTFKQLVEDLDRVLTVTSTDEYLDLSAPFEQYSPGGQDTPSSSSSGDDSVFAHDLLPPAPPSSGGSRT

| Sequence | SH2 binding enrichment (SHP2-C SH2) | SH2 binding enrichment (c-Src SH2) | SH2 binding enrichment (Grb2 SH2) | phosphorylation enrichment (EPHB2) | phosphorylation enrichment (Jak2) | phosphorylation enrichment (c-Src) | phosphorylation enrichment (EPHB1) | phosphorylation enrichment (Fyn) | phosphorylation enrichment (Fes) | phosphorylation enrichment (c-Abl (mouse)) | phosphorylation enrichment (MERTK) | phosphorylation enrichment (Hck) | phosphorylation enrichment (AncSZ) | phosphorylation enrichment (Fer (mouse)) | phosphorylation enrichment (FGFR1) | phosphorylation enrichment (FGFR3) |
| --- | --- | --- | --- | --- | --- | --- | --- | --- | --- | --- | --- | --- | --- | --- | --- | --- |
| VAMELYVFGGV [GAN_Y471] | 0.685 | 0.395 | 0.808 | 0.681 | 1.37 | 1.13 | 0.799 | 0.533 | 1.64 | 1.05 | 0.928 | 0.535 | 1.28 | 0.574 | 0.513 | 0.781 |
| TNFCLYLRSLE [MTM1_Y71_R69C_YF] | 0.644 | 0.525 | 0.773 | 0.759 | 1.7 | 0.612 | 0.895 | 0.594 | 1.69 | 1.27 | 0.492 | 0.567 | 1.62 | 0.847 | 0.512 | 0.995 |
| SQINLYQDVML [ZNF806_Y33_A28S] | 0.771 | 0.608 | 0.846 | 5.9 | 0.847 | 0.934 | 13.2 | 0.965 | 2.48 | 0.752 | 1.81 | 1.6 | 1.02 | 13.9 | 1.01 | 1.06 |
| LKVDVYGRSHK [FUT3_Y222] | 0.621 | 0.561 | 0.715 | 0.778 | 0.588 | 0.379 | 0.553 | 0.324 | 0.869 | 0.629 | 0.37 | 0.625 | 1 | 0.441 | 0.782 | 1.1 |
| TLLPDYEDEEE [ZNF830_Y159_S154T] | 0.815 | 0.635 | 1.06 | 0.962 | 1.1 | 0.62 | 0.925 | 0.605 | 1.28 | 0.846 | 0.546 | 0.709 | 1.64 | 0.788 | 0.683 | 0.938 |
| GSIQQYIFKQE [PRG4_Y1271_YF] | 0.469 | 0.362 | 0.754 | 0.573 | 0.508 | 0.545 | 0.476 | 0.429 | 0.738 | 0.499 | 0.452 | 0.537 | 0.836 | 0.451 | 0.531 | 0.574 |
| FIAVGYVDDTQ [HLA-A_Y51] | 0.967 | 0.625 | 1.05 | 0.499 | 0.782 | 0.49 | 0.453 | 0.406 | 0.949 | 0.668 | 0.415 | 0.509 | 0.822 | 0.429 | 0.505 | 0.553 |
| TIQIMFGCDVG [HLA-A_Y123_Y123F] | 0.84 | 0.515 | 0.861 | 0.801 | 1.42 | 0.548 | 0.905 | 0.545 | 1.86 | 1.01 | 0.503 | 0.619 | 1.28 | 0.749 | 0.645 | 1.14 |
| RDLTHYLMKIL [ACTG1_Y188_D187H] | 1.54 | 1.6 | 1.64 | 0.804 | 0.477 | 0.463 | 1.05 | 0.756 | 1.12 | 0.692 | 0.583 | 1.06 | 1.27 | 0.64 | 0.665 | 0.85 |
| PVRIAYGRPRG [SUGP2_Y985_D986G] | 0.506 | 0.364 | 0.837 | 0.493 | 1.18 | 0.816 | 0.643 | 0.639 | 0.523 | 0.5 | 0.606 | 1.25 | 1.01 | 0.61 | 0.449 | 0.64 |
| TGEKLYQHKEF [ZNF283_Y627_R629H] | 0.695 | 0.419 | 0.818 | 0.402 | 0.599 | 0.417 | 0.45 | 0.39 | 0.679 | 0.665 | 0.397 | 0.495 | 0.62 | 0.436 | 0.418 | 0.528 |
| GIADDYDKKKP [EIF1_Y54_L59P] | 0.614 | 0.895 | 0.76 | 0.502 | 0.909 | 0.436 | 0.425 | 0.418 | 0.998 | 0.648 | 0.378 | 0.381 | 1.01 | 0.389 | 0.501 | 0.636 |
| ATHSRYRLNDF [CLDN14_Y233_G232R_YF] | 0.825 | 0.674 | 0.935 | 0.337 | 0.413 | 0.36 | 0.296 | 0.329 | 0.706 | 0.546 | 0.391 | 0.449 | 0.419 | 0.349 | 0.307 | 0.308 |
| QAYSWYQHQRA [NDST1_Y714_R709Q] | 1.17 | 1.08 | 1.23 | 0.901 | 1.1 | 0.642 | 0.701 | 0.516 | 1.01 | 0.8 | 3.85 | 0.782 | 1.13 | 6.78 | 1.22 | 0.883 |
| SIKDKYVTAVF [KCNH2_Y611_L615V_YF] | 0.658 | 0.538 | 0.82 | 0.475 | 0.839 | 0.501 | 0.48 | 0.543 | 0.794 | 0.682 | 0.443 | 0.467 | 0.667 | 0.523 | 0.491 | 0.541 |
| AVRVFYRKCPH [EPHB2_Y194_R199H] | 0.497 | 0.509 | 0.646 | 0.711 | 0.804 | 0.424 | 0.588 | 0.496 | 1.08 | 1.14 | 0.485 | 0.604 | 1.22 | 0.452 | 0.563 | 0.668 |
| SQAPGYSFTAA [CYCS_Y47_G42S_YF] | 0.577 | 0.437 | 0.701 | 0.465 | 0.673 | 0.414 | 0.433 | 0.443 | 0.701 | 0.764 | 0.49 | 0.362 | 0.673 | 0.546 | 0.417 | 0.53 |

| Sequence | SH2 binding enrichment (SHP2-C SH2) | SH2 binding enrichment (c-Src SH2) | SH2 binding enrichment (Grb2 SH2) | phosphorylation enrichment (EPHB2) | phosphorylation enrichment (Jak2) | phosphorylation enrichment (c-Src) | phosphorylation enrichment (EPHB1) | phosphorylation enrichment (Fyn) | phosphorylation enrichment (Fes) | phosphorylation enrichment (c-Abl (mouse)) | phosphorylation enrichment (MERTK) | phosphorylation enrichment (Hck) | phosphorylation enrichment (AncSZ) | phosphorylation enrichment (Fer (mouse)) | phosphorylation enrichment (FGFR1) | phosphorylation enrichment (FGFR3) |
| --- | --- | --- | --- | --- | --- | --- | --- | --- | --- | --- | --- | --- | --- | --- | --- | --- |
| NDFGNYSNQSS [HNRNPA1_Y318_N319S] | 0.625 | 0.421 | 0.795 | 1.92 | 0.546 | 0.463 | 6.89 | 0.416 | 0.619 | 0.458 | 0.501 | 0.451 | 1.02 | 0.43 | 0.461 | 0.49 |
| REEKNYKLKET [BCLAF1_Y459] | 0.956 | 0.627 | 1.16 | 0.799 | 1.5 | 1.28 | 0.691 | 0.843 | 1.21 | 1.16 | 1.14 | 0.861 | 0.996 | 1.3 | 0.733 | 0.714 |
| FLTQHYDAIPQ [ANG_Y38_K41I] | 0.927 | 13.9 | 0.809 | 0.51 | 0.608 | 0.678 | 0.715 | 0.586 | 0.855 | 0.611 | 2.46 | 2.88 | 0.885 | 9.86 | 0.639 | 0.866 |
| CPYNLYAAQLS [HGD_Y40_E42A] | 0.672 | 0.603 | 0.895 | 4.3 | 0.917 | 6.42 | 4.48 | 3.15 | 1.13 | 0.857 | 5.62 | 3.08 | 1.28 | 3.49 | 0.815 | 0.939 |
| KLQKKYGPISS [CYP17A1_Y60_Y64S] | 0.594 | 0.554 | 0.873 | 0.317 | 0.364 | 0.364 | 0.32 | 0.343 | 0.553 | 0.399 | 0.378 | 0.375 | 0.381 | 0.289 | 0.338 | 0.493 |
| TRDVNYGWVIR [MT-CYB_Y75_I78V] | 0.604 | 0.654 | 1.13 | 1.27 | 1.22 | 0.576 | 0.947 | 0.647 | 1.45 | 0.841 | 1.12 | 0.806 | 1.16 | 1.05 | 0.612 | 0.869 |
| TKYVAYIESQG [KDM4B_Y34_N29T] | 8.32 | 0.675 | 0.8 | 0.611 | 0.498 | 0.418 | 0.456 | 0.546 | 0.828 | 0.508 | 0.331 | 0.485 | 0.924 | 0.432 | 0.541 | 0.608 |
| PLDGEYFTLHI [TP53_Y327_Q331H] | 0.594 | 0.365 | 0.852 | 0.97 | 4.23 | 2.97 | 0.808 | 2.35 | 1.68 | 1.93 | 0.752 | 1.51 | 2.49 | 0.816 | 5.77 | 4.7 |
| DTCPPYVLSQG [GJB4_Y237] | 0.589 | 0.518 | 0.679 | 0.417 | 1.21 | 0.637 | 0.637 | 0.663 | 1.32 | 1.07 | 0.439 | 0.507 | 1.12 | 0.671 | 0.552 | 0.77 |
| LHAALYKRKLL [TTLL5_Y542_E543K] | 2.26 | 0.517 | 0.858 | 0.527 | 1.17 | 0.551 | 0.454 | 0.464 | 0.702 | 1.24 | 0.502 | 0.536 | 0.771 | 0.41 | 0.483 | 0.518 |
| TGTQLYGRFGS [ITGA2B_Y384] | 0.569 | 0.418 | 0.779 | 0.498 | 0.608 | 7.68 | 0.351 | 10.6 | 0.654 | 0.404 | 0.732 | 7.54 | 0.619 | 0.389 | 0.451 | 0.513 |
| HVIKLFGACSQ [RET_Y791_Y791F] | 0.979 | 0.667 | 0.938 | 0.995 | 0.994 | 0.519 | 1.01 | 0.816 | 1.75 | 1.1 | 0.719 | 0.855 | 1.52 | 0.763 | 0.709 | 1.26 |
| KIDAKYKKKIK [WDR19_Y1230_E1235K] | 0.906 | 0.657 | 0.597 | 0.319 | 0.755 | 0.484 | 0.38 | 0.305 | 0.809 | 0.8 | 0.368 | 0.398 | 0.553 | 0.447 | 0.376 | 0.834 |
| KLKRSYSSPDI [USP8_Y717] | 0.649 | 0.413 | 0.698 | 0.688 | 0.524 | 0.396 | 0.376 | 0.322 | 0.613 | 0.412 | 0.43 | 0.379 | 0.552 | 0.38 | 0.365 | 0.461 |
| RAVLLYEFVGK [NATD1_Y45_YF] | 1.5 | 0.972 | 1.57 | 27.1 | 1.56 | 5.67 | 23.8 | 5.5 | 3.12 | 1.54 | 12.7 | 8.33 | 2.71 | 14.9 | 2.12 | 2.29 |
| IENPQYFSDAC [NTRK1_Y496] | 1.02 | 0.524 | 0.789 | 0.616 | 1.14 | 0.542 | 0.648 | 0.516 | 1.24 | 1.01 | 0.546 | 0.626 | 1.13 | 0.524 | 0.673 | 0.962 |
